Data from article PMC5269589, “Functional characterization of NES and GES responsible for the biosynthesis of (E)-nerolidol and (E,E)-geranyllinalool in Tripterygium wilfordii” (Scientific Reports, 2017).

Assays:
[1] = substrate: CC(C)=CCC/C(C)=C/CC/C(C)=C/CC/C(C)=C/COP(=O)(O)OP(=O)(O)O; test: GC-MS of hexane-extracted product; Michaelis-Menten fit; assay type: biochemical, Tripterygium wilfordii; conditions: pH 7.5, 30 °C, 10 min, Mg2+ 10 mM in text (20 mM in Figure 5 legend), no added K+ stated, product (E,E)-geranyllinalool
[2] = substrate: CC(C)=CCC/C(C)=C/CC/C(C)=C/CO[P@@](=O)(O)OP(=O)(O)O; test: as above; assay type: biochemical, Tripterygium wilfordii; conditions: 200 mM K+, pH 7.5, 30 °C, 10 min, Mg2+ 10 mM in text (20 mM in Figure 5 legend), product (E)-nerolidol

| Protein | Km [1] [µM] | Km [2] [µM] |
| --- | --- | --- |
| TwGES1 (Tripterygium wilfordii) (protein, MBP fusion (pMAL-c2X) from E. coli Transetta (DE3), amylose resin; tag cleavage not mentioned) MDFSDSSIISLVDKIKVEMFVDMDVYSFVAPSAYDTAWLAMVPDSRSPVQPLFMDCLDWVLNNQREEGFWGDIDGHGMPAIESLTSTLACLIALKKWNVGESAIQKGLDFVRENAEMYIEEIKDCCPRRFAVIFPAMLEQASSLGLDNILPNHVKDTVHVMDIFIEHRRIVEKEELVETYHYPPLLAYLEALPPNKIDKDQIVTHLSSDGSLFQSPSATASAFMITGNKDCLAYLKAIIQRCPNGVPATYPIDEDLIRLCMVNHLQRLGLAEHFTKEIKNMLTSVHRNYSTNHRSTVKDSNLLHLYKDSLAFWLLRMNGYIVSPGSFCWFMQRGDIKDRIENNYYDDDFSSVMLNVYKATDLMFPGEEDQLEEARCFARKLLENVISTTSGNQNHLHKLIGHELKTPWLARLDHLEHKMWITQEHDSTLLWMGKFSFHRLSYDNSERLTQLAVQNYKYRQSIYRKELVELKRWSREWGLSEMGFGREKTTYCYFVVAASTSLPKHSDVRLIAAKIGILITVADDFFDEHASLDELQNLTHAIQRWDGKGLSGHSRTIFEVLDDLVREIAKKYKEQQEGIDVSDSLKNLWYETFLAWLVESQWSKNGHIPSMDEYIETGMISIASHTLLLPASCFLNPSLAYHQLKPLEYENITKLLMLITRLLNDTQSYQKEQKSGKKNFVLLYLKENPEAEIEDAIEYVGEIIEKKKKEFFEYALMDGLSELPKECRHLHLACLKVYQMLFNSSNRYDSNTELIQDIQEAFYQSPDPEIGVSSSKSSSIKSTKKPVSLPQHLSFKKQNNQTTSYYHSSFDYRGSNNIAVKWASWPKWRVDGYNKSMFVTPKFSPCFI | 2.039 |  |
| TwNES (Tripterygium wilfordii) (protein, MBP fusion (pMAL-c2X) from E. coli Transetta (DE3), amylose resin; tag cleavage not mentioned; gene synthesized) MAFFGSSRSSIIPLKTISQIVTADSTNKRGTVDSNHKSAPTTPLNDRICTEHAHKVKDFKQIINIAGEDPSEGLAIIDAVQRLGVDHHFQDEIHTILQKHYTLATGTTTHGDCMITSLRFRLLRQEGYYVSADVFEGLKDEEGKFDQNLSGDIKGLMALYEASQLSMEGENILDEARDYSSRLLNECVTQLDHDQARIVEHTLTHPHHKSLARFMAKNFLRDFHGTNGWIDDLKKLAKVDFDMAQSTYQKEVVQISQWWKELGLAEELKFARDQPVKWYIWTTTCHQDPSFSELRINLTKPISFVYLIDDIFDVYGTPQEVTDFTEAVDRWDHDAIDQLPYYMKICFKALDDITNEISYKVYKQHGWNPLDSLRKSWGRLCNAFLTEAQWFASGHLPKAEEYLENGIISSGVPVVLLHLFFLLGEGVTQKSVEMIDNTPAIVSAAAAILRLWDDLGSAKDEDQDGKDGSYLACYTNENPGCSLEDAEKHVKSKICDEWKQLNKECLSQKNPFSPSFLKACLNVSRMVPLMYEYDENRRLPRLEEFLKSILIK |  | 12.700 |
